Measured values reported in PMC3520923, “Expression, Characterization, and Cellular Localization of Knowpains, Papain-Like Cysteine Proteases of the Plasmodium knowlesi Malaria Parasite” (PLoS ONE, 2012).

How the values were obtained:
[1] = molecular target: T1, knowpain-3 (KP3) (Plasmodium knowlesi, UniProt A0A384KX24); test: inhibition of Z-LR-AMC hydrolysis, fluorescence; assay type: biochemical; details: 10 µM inhibitor, 100 nM enzyme, 5 min preincubation, sodium acetate pH 5.5, 25 µM Z-LR-AMC; covalent
T1 construct: gene PKNH_0912900
T1 sequence (A0A384KX24 entry or part of it): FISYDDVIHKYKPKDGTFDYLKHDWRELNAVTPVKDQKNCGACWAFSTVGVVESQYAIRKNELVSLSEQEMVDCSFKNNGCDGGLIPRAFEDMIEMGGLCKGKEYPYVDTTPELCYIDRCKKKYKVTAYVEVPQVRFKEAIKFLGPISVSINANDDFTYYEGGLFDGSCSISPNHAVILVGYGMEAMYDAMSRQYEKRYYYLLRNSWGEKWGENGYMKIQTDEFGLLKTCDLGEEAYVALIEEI

[2] = molecular target: T2, knowpain-4 (KP4) (Plasmodium knowlesi, UniProt A0A384LCH8); test: inhibition of Z-LR-AMC hydrolysis, fluorescence; assay type: biochemical; details: 10 µM inhibitor, 10 nM enzyme, 5 min preincubation, sodium acetate pH 5.5, 25 µM Z-LR-AMC; covalent
T2 construct: gene PKNH_0912800
T2 sequence (A0A384LCH8 entry or part of it): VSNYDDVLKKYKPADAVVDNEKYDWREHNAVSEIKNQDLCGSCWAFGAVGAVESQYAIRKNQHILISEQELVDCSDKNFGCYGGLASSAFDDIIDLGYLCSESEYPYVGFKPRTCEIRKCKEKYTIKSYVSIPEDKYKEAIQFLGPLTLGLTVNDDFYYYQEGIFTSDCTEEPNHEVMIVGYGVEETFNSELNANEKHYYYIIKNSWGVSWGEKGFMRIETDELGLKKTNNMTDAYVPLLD

[3] = test system: Cc1cc(=O)oc2cc(NC(=O)[C@H](CCCNC(=N)N)NC(=O)[C@H](CC(C)C)NC(=O)OCc3ccccc3)ccc12; test: purified protein; details: 100 mM sodium acetate pH 5.5, 10 mM DTT, 37°C
[4] = test system: Cc1cc(=O)oc2cc(NC(=O)[C@H](CCCNC(=N)N)NC(=O)[C@H](CCCNC(=N)N)NC(=O)OCc3ccccc3)ccc12; test: purified protein; details: 100 mM sodium acetate pH 5.5, 10 mM DTT, 37°C
Excerpt: (§1) fluorogenic AMC release, initial rates, ORIGIN fit on knowpain-4 (KP4)

[5] = test system: Cc1cc(=O)oc2cc(NC(=O)[C@H](CCCNC(=N)N)NC(=O)[C@H](Cc3ccccc3)NC(=O)OCc3ccccc3)ccc12; test: purified protein; details: 100 mM sodium acetate pH 5.5, 10 mM DTT, 37°C
Excerpt: as §1

## CC(C)C[C@H](NC(=O)[C@@H]1O[C@H]1C(=O)O)C(=O)NCCCCN=C(N)N [E64, trans-epoxysuccinyl-L-leucylamido-(4-guanidino) butane]
[1]
  % of control activity at 10 μM: blocked by the cysteine protease inhibitors E64 and leupeptin
[2]
  % of control activity at 10 μM: blocked by the cysteine protease inhibitors E64 and leupeptin

## knowpain-2 (KP2) (Plasmodium knowlesi strain H)
[3]
  Km: 14.26 ± 0.27 µM
  kcat: 0.0011 s⁻¹
  kcat/Km: 75.6 M⁻¹ s⁻¹

## knowpain-3 (KP3) (Plasmodium knowlesi strain H)
[3]
  Km: 30.56 ± 1.23 µM
  kcat: 0.0156 s⁻¹
  kcat/Km: 511 M⁻¹ s⁻¹

## knowpain-4 (KP4) (Plasmodium knowlesi strain H)
[3]
  Km: 4.20 ± 0.25 µM
  kcat: 0.0129 s⁻¹
  kcat/Km: 3070 M⁻¹ s⁻¹
[4]
  Km: 2.13 ± 0.17 µM
  kcat: 0.0435 s⁻¹
  kcat/Km: 20500 M⁻¹ s⁻¹
[5]
  Km: 4.20 ± 0.19 µM
  kcat: 0.0062 s⁻¹
  kcat/Km: 1470 M⁻¹ s⁻¹
